In the oligonucleotide strings, read from the 5' end, every base follows the letter of its sugar. An asterisk marks phosphorothioate; unmarked linkages are phosphodiester. Other units and linkages are bracketed, terminal groups are in braces. A string of capitals states the bases alone. m = 2'-O-methyl; r = 2'-OH (RNA)
B1: GA191: PCSK9 gRNA; protospacer GCCCCATGTCGACTACATCG (SEQ ID NO: 185) (nucleic acid)
guide: mG*mC*mC*rCrCrArUrGrUrCrGrArCrUrArCrArUrCrGrGrUrUrUrUrArGrArGrCrUrArGrArArArUrArGrCrArArGrUrUrArArArArUrArArGrGrCrUrArGrUrCrCrGrUrUrArUrCrArArCrUrUrGrArArArArArGrUrGrGrCrArCrCrGrArGrUrCrGrGrUrGrCrU*mU*mU*mU
B2: GA004: PCSK9 gRNA, GA156 spacer with modifications to the tracrRNA sequence (nucleic acid)
guide: mG*mG*mU*rGrCrUrArGrCrCrUrUrGrCrGrUrUrCrCrGmGrUrUrUrUrArGmAmGmCmUmAmGmAmAmAmUmAmGmCmAmArGrUrUmArAmArAmUrAmAmGmGmCmUmArGrUmCmCrGrUrUrAmUmCrArAmCmUmUmGmAmAmAmAmAmGmUmGrGmCmAmCmCmGmAmGmUmCmGmGmUmGmCmUmUmUmUmU
B3: GA002: PCSK9 gRNA, GA156 spacer with modifications to the tracrRNA sequence (nucleic acid)
guide: GGTGCTAGCCTTGCGTTCCGGTTTTAGAGCTAGAAATAGCAAGTTAAAATAAGGCTAGTCCGTTATCAACTTGAAAAAGTGGCACCGAGTCGGTGCTTTT
modifications: listed as RNA; modified_base 1: mod_base = OTHER; note = 2'-O-Methyl-guanosine phosphorothioate; modified_base 2: mod_base = OTHER; modified_base 3: mod_base = OTHER; note = 2'-O-Methyl-uridine phosphorothioate
B4: GA189: PCSK9 gRNA; protospacer TCCTCGATGTAGTCGACATG (SEQ ID NO: 183) (nucleic acid)
guide: mU*mC*mC*rUrCrGrArUrGrUrArGrUrCrGrArCrArUrGrGrUrUrUrUrArGrArGrCrUrArGrArArArUrArGrCrArArGrUrUrArArArArUrArArGrGrCrUrArGrUrCrCrGrUrUrArUrCrArArCrUrUrGrArArArArArGrUrGrGrCrArCrCrGrArGrUrCrGrGrUrGrCrU*mU*mU*mU
B5: GA005: PCSK9 gRNA, GA156 spacer with modifications to the tracrRNA sequence (nucleic acid)
guide: GGTGCTAGCCTTGCGTTCCGGTTTTAGAGCTAGAAATAGCAAGTTAAAATAAGGCTAGTCCGTTATCAACTTGAAAAAGTGGCACCGAGTCGGTGCTTTTT
modifications: chemistry not given here
B6: GA006: PCSK9 gRNA, GA156 spacer with modifications to the tracrRNA sequence (nucleic acid)
guide: rG*rG*rU*rGrCrUrArGrCrCrUrUrGrCrGrUrUrCrCrGmGrUrUrUrUrArGmAmGmCmUmAmGmAmAmAmUmAmGmCmAmArGrUrUmArAmArAmUrAmAmGmGmCmUmArGrUmCmCrGrUrUrAmUmCrArAmCmUmUmGmAmAmAmAmAmGmUmGrGmCmAmCmCmGmAmGmUmCmGmGmUmGmCmU*mU*mU*mU
B7: GA009: minimally modified control gRNA, PCSK9 (nucleic acid)
guide: mG*mG*mU*rGrCrUrArGrCrCrUrUrGrCrGrUrUrCrCrGrGrUrUrUrUrArGrArGrCrUrArGrArArArUrArGrCrArArGrUrUrArArArArUrArArGrGrCrUrArGrUrCrCrGrUrUrArUrCrArArCrUrUrGrArArArArArGrUrGrGrCrArCrCrGrArGrUrCrGrGrUrGrCrU*mU*mU*mU
B8: GA003: PCSK9 gRNA, GA156 spacer with modifications to the tracrRNA sequence (nucleic acid)
guide: mG*mG*mU*rGrCrUrArGrCrCrUrUrGrCrGrUrUrCrCrGrGrUrUrUrU*rArGrAmGmCmUmAmGmAmAmAmUmAmGmCrArArGrUrU*rArArArArU*rArArGrGrCrU*rArGrUrCrCrGrUrU*rArUrC*rAmAmCmUmUmGmAmAmAmAmAmGmUmGmGmCmAmCmCmGmAmGmUmCmGmGmUmGmCmU*mU*mU*mU
B9: GA188: PCSK9 gRNA; protospacer TATTCATCCGCCCGGTACCG (SEQ ID NO: 182) (nucleic acid)
guide: mU*mA*mU*rUrCrArUrCrCrGrCrCrCrGrGrUrArCrCrGrGrUrUrUrUrArGrArGrCrUrArGrArArArUrArGrCrArArGrUrUrArArArArUrArArGrGrCrUrArGrUrCrCrGrUrUrArUrCrArArCrUrUrGrArArArArArGrUrGrGrCrArCrCrGrArGrUrCrGrGrUrGrCrU*mU*mU*mU
B10: GA001: PCSK9 gRNA, GA156 spacer with modifications to the tracrRNA sequence (nucleic acid)
guide: rG*rG*rU*rGrCrUrArGrCrCrUrUrGrCrGrUrUrCrCrGrGrUrUrUrUrArGrAmGmCmUmAmGmAmAmAmUmAmGmCrArArGrUrUrArArArArUrArArGrGrCrUrArGrUrCrCrGrUrUrArUrCrAmAmCmUmUmGmAmAmAmAmAmGmUmGmGmCmAmCmCmGmAmGmUmCmGmGmUmGmCmU*mU*mU*mU
B11: GA187: PCSK9 gRNA; protospacer CTCCTCGATGTAGTCGACAT (SEQ ID NO: 181) (nucleic acid)
guide: mC*mU*mC*rCrUrCrGrArUrGrUrArGrUrCrGrArCrArUrGrUrUrUrUrArGrArGrCrUrArGrArArArUrArGrCrArArGrUrUrArArArArUrArArGrGrCrUrArGrUrCrCrGrUrUrArUrCrArArCrUrUrGrArArArArArGrUrGrGrCrArCrCrGrArGrUrCrGrGrUrGrCrU*mU*mU*mU

Legend:
PCSK9 gene [1] = test: PCSK9 gRNA/SpCas9 editing in primary cynomolgus hepatocytes (Tables 2, 22); assay type: cell-based, cynomolgus monkey; settings: SpCas9 mRNA MS002 1:1 by weight; for Cyno Primary Hepatocyte Editing % 100: 100 ng/RNA/mL; for Cyno Primary Hepatocyte Editing % 500: 500 ng/RNA/mL; for Cyno Primary Hepatocyte Editing % 2500: 2500 ng/RNA/mL
Description: (§1) In set of experiments, PCSK9 gRNAs were co-transfected with an equivalent amount (1:1 ratio by weight) of in vitro transcribed commercially available SpCas9 mRNA MS002 purchased from TriLink Biotechnologies into primary human hepatocytes at 2500, 500, or 100 ng/RNA/mL and processed as described in detailed methods. Extracted genomic DNA was analyzed for gene editing at the target site with next-generation sequencing of PCR amplicons generated around the target sites. Samples were prepared using the Nextera XT DNA library preparation kit (Illumina) according to the manufacturer's protocol. Briefly, two rounds of PCR were performed first to amplify the region of interest and second to add DNA sequences required for next generation sequencing and sample identification to the initial product. The final amplicon was sequenced on the Illumina MiSeq instrument according to the manufacturer's protocol. A wide range of editing activities (Table 2) were observed. In a second set of experiments, ANGPTL3 gRNAs were co-transfected with an equivalent amount of in vitro transcribed SpCas9 mRNA (1:1 ratio by weight) into primary human hepatocytes and processed and analyzed similarly (Table 3).
[…] Genomic DNA was processed, sequenced, and analyzed as described in the detailed methods section. GA266 was transfected independently twice to serve as two positive controls.
(§2) Plating, culturing, and transfection of primary hepatocytes. Primary human liver hepatocytes (PHH) and primary cynomolgus liver hepatocytes (PCH) from BioIVT were cultured per the manufacturer's protocol. Briefly, primary human hepatocytes and primary cyno hepatocytes were obtained as frozen aliquots from BioIVT. Four lots of primary human hepatocytes, each derived from a de-identified individual donor, were used for the experiments: STL (main donor) was used for all experiments, including screening experiments and off-target experiments; HLY, JLP, and TLY were used for off-target experiments. The HFG lot of primary cyno hepatocytes were used for experiments. Following the manufacturer's instructions, cells were thawed and rinsed prior to plating in 24-well plates that had been coated with bovine collagen overnight, with a density of approximate 350,000 cells/well in INVITROGRO hepatocyte medium supplemented with TORPEDO antibiotic mix (BioIVT). The cells were thawed and resuspended in hepatocyte thawing medium followed by centrifugation at 100 g for 10 min at 4° C. The supernatant was discarded, and the pelleted cells resuspended in hepatocyte plating medium. Each vial contains approximately 5 million cells that were used for plating one 24-well plate. Plated cells were allowed to settle and adhere for 4-6 h in a tissue culture incubator at 37° C. under 5% CO2 atmosphere. After incubation, cells were checked for monolayer formation. The incubating media were then replaced with fresh hepatocyte maintenance media (complete INVITROGRO medium obtained from BioIVT, the cell line provider). The cells thus became ready for transfection. Each of the gRNAs were co-transfected with an equivalent amount of in vitro transcribed ABE8.8 mRNA (1:1 ratio by molecular weight) into primary human hepatocytes via MessengerMax reagent (Lipofectamine), using various dilutions to assess for editing activity at different concentrations of test article. MessengerMAX from Thermo Fisher is used for transfection. Solution A: desired amount of guide RNA is mixed with 1:1 wt ratio of mRNA in OptiMEM. Solution B: MessengerMAX in OptiMEM. After mixing solutions A and B, the mixture was incubated at room temperature for 20 min. 60 μL of the incubated solution was added dropwise to each cell wells. For protospacer sequences that were a perfect match to the corresponding cynomolgous monkey PCSK9 or ANGPTL3 gene sequence, each gRNA was also co-transfected with an equivalent amount of ABE8.8 mRNA (1:1 ratio by molecular weight) into primary cynomolgous hepatocytes, and followed the same transfection protocol. […]

PCSK9 gene [2] = test: PCSK9 gRNA/SpCas9 editing in primary human hepatocytes (Tables 2, 4); assay type: cell-based; settings: SpCas9 mRNA MS002 1:1 by weight; for Human Primary Hepatocyte Editing % 100: 100 ng/RNA/mL; for Human Primary Hepatocyte Editing % 500: 500 ng/RNA/mL; for Human Primary Hepatocyte Editing % 2500: 2500 ng/RNA/mL; for % Editing, day 3 / % Editing, day 5: modified gRNA; for % Editing, day 3: day 3 post transfection; for % Editing, day 5: day 5 post transfection
Description: as §1
PCSK9 gRNAs were co-transfected with an equivalent amount of in vitro transcribed SpCas9 mRNA MS002 (1:1 ratio by weight) into primary human hepatocytes and processed as described in detailed methods. A wide range of editing activities were observed (Table 4; ND=Not determined). The guides with the highest editing activity at five days post transfection were GA001, GA002, GA007, and GA008.
Human primary hepatocytes were transfected at 2500, 1250, 500, and 250 ng/test article/mL with SpCas9 mRNA MS002 and a gRNA targeting PCSK9 with modifications to the tracr. Genomic DNA was processed, sequenced, and analyzed as described in the detailed methods section. GA156 was transfected to serve as a positive control.
as §2, with “transfection.” for “transfection. Solution A: desired amount of guide RNA is mixed with 1:1 wt ratio of mRNA in OptiMEM. Solution B: MessengerMAX in OptiMEM. After mixing solutions A and B, the mixture was incubated at room temperature for 20 min. 60 μL of the incubated solution was added dropwise to each cell wells. For protospacer sequences that were a perfect match to the corresponding cynomolgous monkey PCSK9 or ANGPTL3 gene sequence, each gRNA was also co-transfected with an equivalent amount of ABE8.8 mRNA (1:1 ratio by molecular weight) into primary cynomolgous hepatocytes, and followed the same transfection protocol.”

| Molecule | Cyno Primary Hepatocyte Editing % 100 (PCSK9 gene [1]) | Cyno Primary Hepatocyte Editing % 500 (PCSK9 gene [1]) | Cyno Primary Hepatocyte Editing % 2500 (PCSK9 gene [1]) | Human Primary Hepatocyte Editing % 100 (PCSK9 gene [2]) | Human Primary Hepatocyte Editing % 500 (PCSK9 gene [2]) | Human Primary Hepatocyte Editing % 2500 (PCSK9 gene [2]) | % Editing, day 3 (PCSK9 gene [2]) | % Editing, day 5 (PCSK9 gene [2]) |
| --- | --- | --- | --- | --- | --- | --- | --- | --- |
| B1 | 5.46% | 26.79% | 51.79% | 3% | 12.2% | 34.6% |  |  |
| B2 |  |  |  |  |  |  | 7% | 12% |
| B3 |  |  |  |  |  |  | 28% | 23% |
| B4 | 3.30% | 15.58% | 41.70% | 1.76% | 8.94% | 31.23% |  |  |
| B5 |  |  |  |  |  |  | 1% | 15% |
| B6 |  |  |  |  |  |  |  | 12% |
| B7 |  |  |  |  |  |  | 4% | 19% |
| B8 |  |  |  |  |  |  |  | 7% |
| B9 | 0.01% | 0.01% | 0.06% | 4.21% | 15.38% | 41.02% |  |  |
| B10 |  |  |  |  |  |  | 16% | 27% |
| B11 | 3.77% | 12.30% | 29.24% | 2.44% | 6.47% |  |  |  |
